The supplement of paper PMC9170038

System: K4 kissing-loop RNA reporter
Assay: apparent KD of K4 kissing-loop reporter; higher = weaker reporter binding
Conditions: Eterna round: R107
Procedure: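 RNA-MaP round R107: designed RNA switches with theophylline, tryptophan, arginine or FMN aptamers are transcribed on-chip within common flanks. They are titrated with a labelled K4 kissing-loop RNA reporter in RNA-MaP buffer (100 mM Tris pH 7.5, 80 mM KCl, 4 mM MgCl2), without ligand or with the indicated ligand. Median apparent KD per design.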

[1] = input ligand: theophylline 20 uM
[2] = input ligand: tryptophan 2.4 mM
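Note: bound reporter read as fluorescence of individual clusters on recovered sequencing chips by microscopy, with normalized cluster intensities fitted with a binding model.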

Sequence | apparent KD of K4 kissing-loop reporter (input ligand: FMN 200 uM) | apparent KD of K4 kissing-loop reporter (input ligand: arginine 13.2 mM) | apparent KD of K4 kissing-loop reporter (input ligand: none) | apparent KD of K4 kissing-loop reporter [1] | apparent KD of K4 kissing-loop reporter [2]
CGGCGCGGCGCGGCCGCCACUGCGCCUGGGUGCUCGCCGAGUGAUGUUCGUCGGCGGUUGGGUGGCAGGACCGGGUGCCGGCCCG [BDazzled - #18 SS Tryptophan B] | 930 nM | 703 nM | 827 nM | 1030 nM | 768 nM
CGGCUCACGCAAGGAUAUCGCAGUGAGUACUCUGGAAGAAUAAAGCUAGUGAUGUUAGGUUAGAAGCGAGAAGGUGCGGCCGUAU [theeternabot_sameState_KL_FMN_B_30] | 126 nM | 96.5 nM | 128 nM | 197 nM | 137 nM
CGGUAGUCUAUAGGGUCCAGUGAUGUUGGACAGGAUAUGCUACGCCGCAGAAGGGUCCAACUGGUUGUGAAGUUGGCUACUAGGC [Somaaxe] | 144 nM | 200 nM | 168 nM | 147 nM | 189 nM
CGUACGGUUUCUUUCUUUCCGUACGAGUGCCGAGGACCGGUACGGCCGCCACUCGCUACAGCCUAGUGAUGUUAGGCAUUUCUUU | 104 nM | 110 nM | 105 nM | 146 nM | 94.1 nM
CGUAGUUGGGCGGCCGCCACUUGAAAAGCUUUGCCAAAGGCAGAGCUCUAGAGUGAUGUUCUGGCAAGGACCGGGUCCAACUACA [#03 K4 Tryptophan B Same State] | 869 nM | 719 nM | 872 nM | 590 nM | 358 nM
CGUAGUUGGGCGGCCGCCACUUGAACAGCUUUGCCAAAGGCAGAGCUCUAGAGUGAUGUUCUGGCAAGGACCGGGUCCAACUACA [#02 K4 Tryptophan B Same State] | 1270 nM | 777 nM | 1240 nM | 822 nM | 423 nM
CUAGAAGUGAUGUUUCAUAGUAAAUCUGAUACCAGCAUUAAACCCUGCCCUUGGCAGCAGAAUGGGCUGAUAGACUCCUGCAGCU [theeternabot_sameState_KL_Theo_A_36] | 220 nM | 199 nM | 228 nM | 208 nM | 182 nM
CUAGGCCCUCGGCGGGACAUUGCGUGGGAAGGAGCGCAGAUAACUGCAGGUAGGUCGCCCAGUGAUGUUGGGCGAAUAUUGGUCA [Esinabige] | 102 nM | 98.3 nM | 124 nM | 120 nM | 110 nM
CUAUCCCGCCGUGUAUGUAGUAUACGGUGCCGAGGACCGGUACGGCCGCCACUCGAUAAGCUUUGUCGGAGUGAUGUUCCGACCG [Soleesen] | 277 nM | 181 nM | 213 nM | 263 nM | 265 nM
CUCGAGUGAUGUUCGAUUAUGUAUACAGAUACCAGUGAAUUUUAACACCCUUGGCAGCUGGUAGAAUCAUUUUAAUUUUAACUAG [JR_SSTheophyA_Sub021] | 201 nM | 256 nM | 221 nM | 268 nM | 162 nM
CUCGAGUGAUGUUCGAUUAUGUAUACAGAUACCAGUGAAUUUUAACACCCUUGGCAGCUGGUAGAAUCUUUGUAAUUUUAACUAG [JR_ExcTheophyA_Sub002] | 162 nM | 253 nM | 180 nM | 230 nM | 134 nM
CUCGAGUGAUGUUCGAUUAUUUAUACAGAUACCAGUGAAUUUUAACACCCUUGGCAGCUGGUUGUAUCUUUGUUUUUUACACAAG [JR_ExcTheophyA_Sub006] | 117 nM | 177 nM | 118 nM | 172 nM | 107 nM
CUCGUGGGUUUGAGAGGGCUUGUGGGAAGAUAGGAUAUCUAGGGAGGGAGAAGGAUCUAUAGAAUAUAGUGAUGUUAUAUAUGGG [#05 K4 FMN A Same State] | 164 nM | 131 nM | 87.7 nM | 154 nM | 122 nM
CUCGUGGGUUUGAGAGGGCUUGUGGGAAGUGAGGAUAUUUAGGGAGAAAGAAGGCACUAUAGAAUAUAGUGAUGUUAUAUAAGGG [SSFMNA.N] | 314 nM | 95.7 nM | 200 nM | 273 nM | 212 nM
CUCGUGGGUUUGGGAGGGCUUGUGGGAAGAUAGGAUAUCUAGGGAGGGAGAAGGAUCUAUAGAAUAUAGUGAUGUUAUAUAUGGG [SSFMNA.aA] | 118 nM | 261 nM | 165 nM | 230 nM | 106 nM
CUGAUGCUGAUGCGGCGGCCGGUGGUCGUGCGAGGACCGGUACGGCCGCCACUCGCGCGAGUGAUGUUCGCGCGUCGUCGUCGUC [First Shot] | 120 nM | 91.4 nM | 114 nM | 76.9 nM | 117 nM
CUGAUGCUGAUGCGGUGGCCGGUGGUCGUGCGAGGACCGGUACGGCCGCCACUCGCAUGAGUGAUGUUCAUGUGUCGUCGUCGUC [#04 K4 Tryptophan A Exclusion] | 204 nM | 133 nM | 169 nM | 164 nM | 172 nM
CUGGGUUGACGAAAAGUCAACAAAAGAGAAGGAGCGCACGAAAGUGCAGGUAGGUCGCUCAAUCCAGUGAUGUUGGGUCAUCCAG [#SwitchBubble 14 #K4Late] | 568 nM | 580 nM | 800 nM | 1110 nM | 869 nM
CUGGGUUGACGAAAAGUCAACAAAAGAGAAGGAGCGCACGAAAGUGCAGGUAGGUCGCUCAAUCCAGUGAUGUUGGGUCGUCCAG [#OpenEnded 11 #K4Late] | 279 nM | 192 nM | 284 nM | 285 nM | 222 nM
CUGGUGCUGAUGCGGUGGCCGGUGGUCGUGCGAGGACCGGUACGGCCGCCACUCGCAUGAGUGAUGUUCAUGUGUCGUCGUCGUC [whbob_EX_Tryp_A_t1] | 212 nM | 134 nM | 181 nM | 176 nM | 217 nM
CUGGUUCAGUGAUGUUGGAAGGUUUAGGUGAAGGAUAUAUUGCAUAAUAGAAGGUCACGGCCAUGCAAUUAUUAACGUAGCCUGU [theeternabot_exclusion_KL_FMN_A_3] | 279 nM | 114 nM | 172 nM | 126 nM | 158 nM
CUGUCCUACGAAGGAUAUGCUGAUGGGAUCAAACAGUGAUGUUGUUAUGAACUUAGGCUUAUGUGCGCAGAAGGUCGUGGCGACG [theeternabot_sameState_KL_FMN_B_42] | 236 nM | 396 nM | 264 nM | 801 nM | 546 nM

Sequence | apparent KD of K4 kissing-loop reporter (input ligand: FMN 200 uM) | apparent KD of K4 kissing-loop reporter (input ligand: arginine 13.2 mM) | apparent KD of K4 kissing-loop reporter (input ligand: none) | apparent KD of K4 kissing-loop reporter [1] | apparent KD of K4 kissing-loop reporter [2]
CUGUUUUAGUCGGCCGCCACUGCAAGUGAUGUUUGGAGUAUUAUGCCGUUUCUGUCCAUUGAACCCAGGACCGGGACCGGAUCGU [theeternabot_exclusion_KL_Trp_B_8] | 212 nM | 167 nM | 206 nM | 186 nM | 189 nM
CUUAAGAUAUGAGUGAUGUUUAUGUCCGAAGGAGCGUGCGAAAGUACAGGUAGGUCGCGGAUGUGAGUGAUGUUUAUGUAAGCGA [KL-XArg-A14 #analogue] | 121 nM | 37.1 nM | 120 nM | 75 nM | 103 nM
CUUCGAUUAACAGAUACCAGUCACUUUGGAGCCACACACAAGUGAGUGAUGUUCACUUGUGACCCUUGGCAGCUGUUAGUCGAAG [Theo B Ex t1] | 92.8 nM | 75.4 nM | 83.4 nM | 87.6 nM | 88.1 nM
CUUCUUCUUCCAAUCUCGGCCAACACGGGACGAGGACCGGUACGGCCGCCACUCGUGCAGUGAUGUUGCACGAUGGUGACGGAGA [Engebiisso] | 98.5 nM | 81.1 nM | 84.6 nM | 74.7 nM | 113 nM
CUUGAUGGAAACAUCGAGUAGAUUACUGAUACCAGUAUCGAUAGAUACCCUUGGCAGCAGAAUCAGUGAUCACGAGUGAUGUUCG [Ex Theophylline A K4 8] | 525 nM | 441 nM | 529 nM | 451 nM | 484 nM
CUUGGUGGCUACAUCAGGAAUUGCGGCGGAAAGGAUAUUCAUUGGCGAAGAAGGUUCCAAGUGACGAGUGAUGUUCUUCGUAAGG [theeternabot_sameState_KL_FMN_A_13] | 422 nM | 434 nM | 802 nM | 579 nM | 779 nM
CUUGUACAAGUGAUGUUUGUUAUAUCCGAAGGAGCGUCGUAAUAGACAGGUAGGUCGCGGAGUAAGAUAGUUUUUUUAAUAUCAU [JR_Nu_SSArginiA_Sub029] | 435 nM | 338 nM | 556 nM | 462 nM | 288 nM
GAAAGAAAGUAUGAUACCAGACACCCGAGUGAUGUUCGGAGCAGUGUGAUGUUCUUUUAAGUCCCUUGGCAGCAUAAAAGAAAAG [whbob_SS_Theo_B_sa84] | 122 nM | 142 nM | 126 nM | 101 nM | 91.7 nM
GAACGGAGUGAUGUUCCGUUGACGAUCCUACGAGGACCGGUACGGCCGCCACUCGUAUUGCAGUGAUGUUGCAACCAGCCGUACU [Exclusion Tryptophan A GF 10] | 104 nM | 112 nM | 102 nM | 106 nM | 87.9 nM
GAACGGCGGGCGGCCGCCACUGGUAUACGAGUGAUGUUCGGAUAUACGUGAUGUAAGGUAAUUAUCAGGACCGGGUCAGAGCCGG [#16 K4 Tryptophan B Same State] | 394 nM | 183 nM | 303 nM | 341 nM | 167 nM
GAAGGUCAAAGACCUUCGUGCACACCUGAUACCAGUCGCGAAAGCGACCCUUGGCAGCAGGGCAGUGAUGUUGCCAGUGCACAAA [Omei KL Theo A SS A v5] | 194 nM | 176 nM | 191 nM | 164 nM | 159 nM
GAAGUACAGGCGGCCGCCACUAGUGAUGUUAGUGAUAAAAGAUAUAGUAAAUAUCGGCAUGUAGAUAGGACCGGGCCUGAUGGAG [ggbgmullin] | 311 nM | 220 nM | 256 nM | 236 nM | 226 nM
GAAUGAAAUAUCUGGCCCUAUCAGAAUUGGAAGGAUAUGACGGUCAUCAGAAGGUCCAACUCGUAGUGAUGUUGCGGGUUUUAAA [theeternabot_exclusion_KL_FMN_A_21] | 91.2 nM | 46.3 nM | 41.4 nM | 42.8 nM | 36.2 nM
GACAUCUAUCGCCGAUAGUGUUUAUCUUGGGAGGAUAUGUCAGCGGACAGAAGGCCCAGUGAUGUUGGGUAGAUGACCGUUGCUU [Edbiza] | 242 nM | 114 nM | 135 nM | 127 nM | 120 nM
GACGGGCAGUGAUGUUGCCGGUCUCUUGGACGAGGACCGGUACGGCCGCCACUCGAUCUGAUGCGAGAAUUGUAUCUUUUAAUAA [Tegesosoat] | 250 nM | 177 nM | 242 nM | 346 nM | 347 nM
GACUACCGGGCGGCCGCCACUGGGCUCCGAGUGAUGUUCGGAAAGACUCAUACACUGCUGUCAGACAGGACCGGGCCAAGGCGCA [theeternabot_sameState_KL_Trp_B_5] | 145 nM | 170 nM | 172 nM | 201 nM | 151 nM
GAGAACUCUUACGAUACCAGCCGGAGUGAUGUUCCGCGCUUGGACGUAGUAACCCGCACCGGCCCUUGGCAGCGUGGAUCCUAUG [Bibiinor] | 91.1 nM | 81.2 nM | 86.1 nM | 86.8 nM | 80.5 nM
GAGAAUAACGGAAGGAGCGAGUAAUGGAGUGAUGUUCCAAUCAAUAAAACACAAUAAAAUACUCAGGUAGGUCGCCGUAGUAGUU [Exclusion Argiie B GF 12] | 244 nM | 339 nM | 323 nM | 330 nM | 215 nM
GAGAUAGCGACGGCCGCCACUAGUGAUGUUAGUGCGGGUAGAUAGAUACUUGAACAGAAAUGACGUAGGACCGGGUCAGAUAGAG [#02 K4 Tryptophan B Exclusion] | 162 nM | 94.5 nM | 125 nM | 140 nM | 149 nM
GAGCCAGAAGUUGCUGCGGGUUUCAGAGAUACCAGCCGUAUUGUAGGCCCUUGGCAGCUCGAGUGAUGUUCGAGCCGCUUCUAGC [Inma] | 128 nM | 95.4 nM | 120 nM | 115 nM | 114 nM
GAGGCCAAACGGAGUGAUGUUUCGUAUGAUACCAGCAGCGAAAGCUGCCCUUGGCAGCAUGCCACGGCCUCGGCAGGAAACUGCC | 401 nM | 322 nM | 358 nM | 371 nM | 339 nM
